Experimental data as given in patent publication US20260266833A1 (AXOIYA, published 2026).
Where a chain is given by its changes, count along the chain named. Like-named read-outs stand apart in the source and are kept apart here. Non-standard residues stand in square brackets, D forms with d. No end group written: not given here. *: point of attachment. Biotin = O=C1N[C@H]2[C@H](CS[C@H]2CCCCC(=O)*)N1; Arg(Me) = CNC(=N)NCCC[C@H](N)C(=O)O; Ahx = NCCCCCC(=O)O

T1: H3K27me1 (Kme1 at peptide residue 10 (histone H3 K27); N-terminal biotin and aminohexanoic acid linker)
T1 construct: also called H3K27Me1 peptide
T1 peptide: KQLATKAARKSAPATGGVK

T2: H3K27me2 (Kme2 at peptide residue 10 (histone H3 K27); N-terminal biotin and aminohexanoic acid linker)
T2 construct: also called H3K27Me2 peptide
T2 peptide: KQLATKAARKSAPATGGVK

T3: H3R17
T3 construct: also called H3R17 peptide (non-modified)
T3 peptide: {Biotin-Ahx}-KSTGGKAPRKQLATKAA

T4: H3R17me1
T4 construct: also called H3R17me1 peptide
T4 peptide: {Biotin-Ahx}-KSTGGKAP[Arg(Me)]KQLATKAA

T5: H3K14
T5 construct: also called H3K14 peptide (non-modified)
T5 peptide: {Biotin-Ahx}-TARKSTGGKAPRKQLAT

T6: H3K27 peptide (non-methylated) (also: N-terminal biotin + Ahx, or FITC at N-terminus)
T6 construct: also called unmethylated H3K27 peptide
T6 peptide: KQLATKAARKSAPATGGVK

T7: H3K14Ac
T7 construct: also called H3K14Ac peptide
T7 peptide: {Biotin-Ahx}-TARKSTGGK(Ac)APRKQLAT

T8: H3K9Ac (Kac at peptide residue 9 (histone H3 K9); N-terminal biotin and aminohexanoic acid linker)
T8 construct: also called H3K9Ac peptide
T8 peptide: ARTKQTARKSTGGKAPR

T9: H3K9me1 (Kme1 at peptide residue 9 (histone H3 K9); N-terminal biotin and aminohexanoic acid linker)
T9 construct: also called H3K9Me1 peptide
T9 peptide: ARTKQTARKSTGGKAPR

T10: H3K9me2 (Kme2 at peptide residue 9 (histone H3 K9); N-terminal biotin and aminohexanoic acid linker)
T10 construct: also called H3K9Me2 peptide
T10 peptide: ARTKQTARKSTGGKAPR

T11: H3K9 peptide (non-methylated) (also: N-terminal FITC, or biotin + Ahx)
T11 construct: also called unmethylated H3K9 peptide
T11 peptide: ARTKQTARKSTGGKAPR

T12: Cbx6.wt chromodomain (tags removed) (human, UniProt O95503 6-69)
T12 construct: also called Cbx6-chromo
T12 sequence: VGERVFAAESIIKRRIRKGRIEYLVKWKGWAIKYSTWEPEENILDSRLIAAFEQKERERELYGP

T13: Cbx7.wt chromodomain (tags removed) (human, UniProt O95931 4-75)
T13 construct: also called Cbx7-chromo
T13 sequence: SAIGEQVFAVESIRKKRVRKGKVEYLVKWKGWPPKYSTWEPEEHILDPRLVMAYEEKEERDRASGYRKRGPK

T14: Cbx2.wt chromodomain (tags removed) (human, UniProt Q14781 8-70)
T14 sequence: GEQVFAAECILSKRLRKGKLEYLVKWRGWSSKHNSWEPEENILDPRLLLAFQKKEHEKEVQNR

B1: Cbx6.VD chromodomain-luciferase fusion (designed binder)
chain: MSYYHHHHHHGSDYKDDDDKSSGENLYFQGSGGSVGDRVFAAESIIKRRIRKGRIEYLVKWEGWAIKYSTWEPEENILDSRLIAAFEQKERERELYGP
notes: not shown: engineered YY5 firefly luciferase from Photinus pyralis fused to the C-terminus
B2: Cbx7.V1 chromodomain (tags removed) (designed binder)
chain: T13 sequence with E5D, Q6D, V7I, K30E, P34L, K35E
notes: ITC and FP: His6 and Flag tags removed with TEV protease
B3: Cbx8.wt chromodomain-luciferase fusion (other)
chain: MSYYHHHHHHGSDYKDDDDKSSGENLYFQGSGGSGERVFAAEALLKRRIRKGRMEYLVKWKGWSQKYSTWEPEENILDARLLAAFEEREREMELYGP
notes: as for B1
B4: Cbx6.VD chromodomain (tags removed) (designed binder)
chain: T12 sequence with E3D, K28E
B5: H3K27me3 peptide (peptide)
peptide: KQLATKAARKSAPATGGVK
modifications: Kme3 (trimethyl-lysine) at the 10th residue (KQLATKAARKme3SAPATGGVK); N-terminus biotin + aminohexanoic acid linker, or FITC at the N-terminus for fluorescence polarization
notes: Synthetic peptide (GenScript); One entry is used for the biotinylated and the FITC-labelled form

What was measured:
H3K27me1 = target: T1, H3K27me1; assay: luciferase-fusion assay on immobilized peptide
Procedure: (§1) For luciferase-based assays, 384-well white plates (PerkinElmer) were coated for 16 h at 4° C. with 4 μg/ml streptavidin (New England Biolabs, N7021S) in TBS pH 8.5 (50 mM Tris-HCl pH 8.5, 150 mM NaCl). Each well was blocked with 60 μl/well of TBS pH 8.5 containing 0.5% BSA (TB buffer) and incubated at 25° C. for 1 h. Plates were washed four times with 90 μl/well of PBS pH 7.4, 0.05% Tween-20 (PT buffer) and incubated with 25 μl/well of biotinylated histone peptides at 5 μg/ml in TB buffer pH 8.5 for 30 min at 25° C. Plates were washed and incubated with Cbx chromodomain-luciferase fusions diluted to 0.1 nM for Cbx. VD or 100 nM for Cbx.wt in TB buffer, 0.05% Tween-20, 1 mM DTT, 5% glycerol (TBT buffer). Plates were incubated for 1 h at 25° C. with gentle shaking, washed six times and luminescence intensity was measured with a Biotek Synergy 5 plate reader (Biotek) using the ONE-Glo™ EX luciferase assay system reagent (Promega). Following background subtraction of the luminescence signal derived from wells coated with streptavidin, the luminescence intensity was normalized to wells with immobilized H3K9me3 peptide.
(§2) To enhance detection sensitivity, each chromodomain was expressed as a fusion to the N-terminus of an engineered firefly luciferase and binding was measured by luminescence intensity.

H3K27me2 = target: T2, H3K27me2; assay: luciferase-fusion assay on immobilized peptide
Procedure: as §1, §2

H3R17 = target: T3, H3R17; assay: luciferase-fusion assay on immobilized peptide
Procedure: as §1, §2

H3R17me1 = target: T4, H3R17me1; assay: luciferase-fusion assay on immobilized peptide
Procedure: as §1, §2

H3K14 = target: T5, H3K14; assay: luciferase-fusion assay on immobilized peptide
Procedure: as §1, §2

H3K27me3 peptide [1] = target: B5; assay: luciferase-fusion assay on immobilized peptide
Procedure: as §1, §2

[2] = target: T6, H3K27 peptide (non-methylated); assay: luciferase-fusion assay on immobilized peptide
Procedure: as §1, §2

H3K27me3 peptide [3] = target: B5; assay: ITC, peptide titrated into the chromodomain, 25 C
Procedure: Dissociation constants were determined using the one-site binding model supplied in MicroCal PEAQ-ITC analysis software (version 1.1.0.1262) with the fitted offset control. Data are the average from three independent experiments ±1 SD.

H3K27me3 peptide [4] = target: B5; assay: fluorescence polarization, FITC-peptide 0.5 nM
Procedure: (§3) Fluorescence polarization (FP) assays were performed in a 20 μl volume at a constant histone peptide concentration of 0.5 nM. Binding measurements were performed in FP buffer (25 mM HEPES pH 7.5, 150 mM NaCl, 1 mM DTT, 0.01% TritonX-100) by mixing in a 384-well black plate (Corning) 0.5 nM FITC-labeled histone peptides with serial dilutions of wild-type Cbx chromodomains ranging from 200-0.2 μM. For affinity determination of Cbx7.V1 and all Cbx. VDs, chromodomains were serially diluted from 50 μM to 50 nM. Samples were incubated for 30 min at 25° C. prior to data acquisition. […] Dissociation constants were determined using Prismv.9.3 (GraphPad Software Inc) with a one-site total binding model.

H3K14Ac = target: T7, H3K14Ac; assay: luciferase-fusion assay on immobilized peptide
Procedure: as §1, §2

H3K9Ac = target: T8, H3K9Ac; assay: luciferase-fusion assay on immobilized peptide
Procedure: as §1, §2

H3K9me1 = target: T9, H3K9me1; assay: luciferase-fusion assay on immobilized peptide
Procedure: as §1, §2

H3K9me2 = target: T10, H3K9me2; assay: luciferase-fusion assay on immobilized peptide
Procedure: as §1, §2

H4K20me3 = target: T15, H4K20me3 (Kme3 at peptide residue 8 (histone H4 K20); N-terminal biotin and aminohexanoic acid linker); assay: luciferase-fusion assay on immobilized peptide
T15 construct: also called H4K20Me3 peptide
Procedure: as §1, §2

[5] = target: T11, H3K9 peptide (non-methylated); assay: luciferase-fusion assay on immobilized peptide
Procedure: as §1, §2

H4K20 peptide = H4K20 peptide (N-terminus biotin + aminohexanoic acid linker); assay: luciferase-fusion assay on immobilized peptide
Procedure: as §1, §2

H3K27me3 peptide [6] = target: B5; assay: fluorescence polarization
Procedure: as §3
(§4) FP assays was used to measure the affinities of each wild-type Cbx chromodomain (Cbx.wt) and its Cbx. VD version for the H3K9me3 and H3K27me3 peptides (Table 13).

[7] = target: Cbx3.wt chromodomain (tags removed) (human, UniProt Q13185 23-81); assay: fluorescence polarization
Cbx3.wt chromodomain (tags removed), sequence (Q13185 23-81 limits assumed): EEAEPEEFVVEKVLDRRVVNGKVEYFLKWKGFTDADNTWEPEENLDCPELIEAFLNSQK
Procedure: as §3, §4

[8] = target: Cbx5.wt chromodomain (tags removed) (human, UniProt P45973 17-78); assay: fluorescence polarization
Cbx5.wt chromodomain (tags removed), sequence (P45973 17-78 limits assumed): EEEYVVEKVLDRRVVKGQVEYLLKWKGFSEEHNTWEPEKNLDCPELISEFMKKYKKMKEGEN
Procedure: as §3, §4

[9] = target: T12, Cbx6.wt chromodomain (tags removed); assay: fluorescence polarization
Procedure: as §3, §4

[10] = target: T16, Cbx1.wt chromodomain (tags removed) (human, UniProt P83916 17-79); assay: fluorescence polarization
T16 construct: also called Cbx1-chromo
T16 sequence (P83916 17-79 limits assumed): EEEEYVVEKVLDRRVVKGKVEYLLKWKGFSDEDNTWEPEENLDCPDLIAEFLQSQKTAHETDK
Procedure: as §3, §4

[11] = target: T13, Cbx7.wt chromodomain (tags removed); assay: fluorescence polarization, FITC-peptide 0.5 nM
Procedure: as §3

[12] = target: T13, Cbx7.wt chromodomain (tags removed); assay: fluorescence polarization, FITC-peptide 0.5 nM; remark: listed apart in the source
Procedure: as §3, §4

[13] = target: T14, Cbx2.wt chromodomain (tags removed); assay: fluorescence polarization, FITC-peptide 0.5 nM
Procedure: as §3, §4

Binder: B1
binding result (H3K27me1): no binding (tested: 0.1 nM) | binding result (H3K27me2): no binding (tested: 0.1 nM) | binding result (H3R17): no binding (tested: 0.1 nM) | binding result (H3R17me1): no binding (tested: 0.1 nM) | binding result (H3K14): no binding (tested: 0.1 nM) | binding result (H3K27me3 peptide [1]): no binding (tested: 0.1 nM) | binding result [2]: no binding (tested: 0.1 nM)

Binder: B2
Kd (H3K27me3 peptide [3]): 7.8 µM | Kd (H3K27me3 peptide [4]): 4 µM

Binder: B3
binding result (H3K14Ac): no binding (tested: 100 nM) | binding result (H3K9Ac): no binding (tested: 100 nM) | binding result (H3K9me1): no binding (tested: 100 nM) | binding result (H3K9me2): no binding (tested: 100 nM) | binding result (H3K27me1): no binding (tested: 100 nM) | binding result (H3K27me2): no binding (tested: 100 nM) | binding result (H3R17): no binding (tested: 100 nM) | binding result (H3R17me1): no binding (tested: 100 nM) | binding result (H4K20me3): no binding (tested: 100 nM) | binding result (H3K14): no binding (tested: 100 nM) | binding result [5]: no binding (tested: 100 nM) | binding result [2]: no binding (tested: 100 nM) | binding result (H4K20 peptide): no binding (tested: 100 nM)

Binder: B4
binding result (H3K27me3 peptide [6]): no binding

Binder: B5
binding result [7]: no binding | binding result [8]: no binding | binding result [9]: no binding | binding result [10]: no binding | Kd [11]: 110 µM | Kd [12]: 110 µM | Kd [13]: 100 µM
